From patent US7387779B2, “Anti-angiogenic proteins and fragments and methods of use thereof” (Beth Israel Deaconess Medical Center, priority 1998, dated 2008)

What was measured:
bovine endothelial cells = experiment: Cap-dependent (LUC) / cap-independent (CAT) translation reporter; assay type: cell-based; settings: 4.5 μM; 21 hours
HUVECs = experiment: Endothelial tube formation on Matrigel; assay type: cell-based, human
Method: Tumstatin-44-131 was also found to inhibit endothelial tube formation, as shown by Matrigel assay. The Matrigel assay was performed as described in the examples above. Briefly, HUVECS were allowed to form tubes on Matrigel-coated plates incubated with or without 5 μg/ml E. Coli-expressed Tumstatin-44-131. BSA-treated cells and yeast-expressed human endostatin (5 and 20 μg/ml) was used as controls. […] The average percentage tube branch formation after treatment was 22.7±3.1 for the BSA treatment, 2.1±2.0 for Tumstatin-44-131 treatment, while the 5 μg/ml and 20 μg/ml endostatin produced an average of 19.4±3.0 and 7.5±6.0, respectively.

C-PAE cells [1] = experiment: Competitive proliferation assay with anti-Tum-4 antibody; assay type: cell-based, bovine; settings: 1.5 μg/ml
Method: To determine if Turn-1 's inhibition of endothelial cell proliferation could be nullified by anti-Tum-4 antibody, a competitive proliferation assay was performed as described in Example 26, above. Tum-1 was preincubated with anti-Tum-4 antibody for the purpose of at least partially blocking the αvβ3 integrin binding site. It was then used in endothelial cell proliferation assays.
The results are shown in FIGS. 38A and 38B, which are histograms showing proliferation of C-PAE cells (y-axis) treated with 1.5 μg/ml Tum-1 (FIG. 38A) or Tum-2 (FIG. 38B) that had been preincubated with anti-Tum-4 antibody (1:100, 1:200, 1:500 dilution) (x-axis). Each column represents the mean ±the standard error of the mean for triplicate wells. The experiments were repeated three times. Asterisks indicate P<0.05 by one-tailed Student's t-test.

αvβ3 integrin protein = molecular target: T1, αvβ3 integrin protein (Homo sapiens, UniProt P05106+P06756); experiment: Competition proliferation assay with soluble αvβ3 protein, WM-164 cells; assay type: cell-based; settings: αvβ3 protein at 2 μg/ml
T1 construct: purchased CHEMICON Int'l, Temecula, Calif., USA
Method: αvβ3 was then tested for its ability to negate the anti-proliferative effect of Tum-4 on melanoma cells. Tumstatin and Tum-4 were pre-incubated for 30 minutes at room temperature with αvβ3 integrin protein, then added to WM-164 cells grown in 96-well plates. After 48 hours of incubation, the increase in cell number was determined by methylene blue staining. Tumstatin had no effect on WM-164 cells.

PC-3 cells = experiment: Annexin V-FITC apoptosis assay; assay type: cell-based, human
Method: Annexin V-FITC Labeling. In order to establish apoptosis as the potential mode of action for Canstatin, Annexin V-FITC was used to label externalized phosphatidylserine (PS), to assess apoptotic cells. 0.5×10^6 C-PAE cells, PC-3, 786-O and HEK 293 cells were added to each well of a 6 well tissue culture plate in 10% FBS supplemented DMEM (BioWhittaker, Walkersville, Md., USA) overnight. The next day, fresh medium was added to all wells together with 40 ng/ml TNF-α (positive control) or 15 μg/ml Canstatin. Control cells received an equal volume of PBS. After 24 hours of treatment, medium containing detached cells was collected and attached cells were trypsinized and combined with detached cells and centrifuged at 3,000×g. Cells were then washed and phosphatidyl-serine externalization (an early apoptotic indicator) was measured by labeling with FITC-labeled annexin V (Clontech, Palo Alto, Calif., USA) according to the manufacturer's instructions. Annexin V-FITC-labeled cells were counted using a FAC Star Plus flow cytometer (Becton-Dickenson, Waltham, Mass., USA). For each treatment 15,000 cells were counted and stored in listmode. […] Annexin V-FITC labeled cells were counted using a FACStar Plus flow cytometer (Becton-Dickinson, Waltham, Mass., USA). For each treatment, 15,000 cells were counted and stored in listmode.

C-PAE cells [2] = experiment: BrdU incorporation proliferation assay; assay type: cell-based, bovine; settings: 0-2.0 μM
Method: The anti-proliferative affect of Tumstatin-44-131 on C-PAE cells was examined via BrdU incorporation assay. This assay uses bromodeoxyuridine (BrdU) instead of ^3H-thymidine as a thymidine analog. BrdU is incorporated into newly synthesized DNA strands in actively proliferating cells. The BrdU incorporated into the cells can then be detected immunochemically. The assay was conducted using the BrdU proliferation assay kit (CalbioChem, San Diego, Calif., USA) according to the manufacturer's instructions, with some modifications. C-PAE cells were seeded onto 96-well plates in DMEM containing 10% FCS. The next day, the medium was replaced with DMEM containing 2% FCS with or without E. Coli-expressed Tumstatin-44-131, or full-length Tumstatin expressed in 293 cells. The plates were then incubated for 46 hours, and the cells were then pulsed for two hours with 10 nM BrdU. The cells and DNA were then fixed to the wells, reacted with anti-BrdU primary and secondary antibodies, and then developed with a calorimetric reaction supplied with the kit. The plates were then read at OD450 on a plate reader (Molecular Dynamics, Sunnyvale, Calif., USA).

T1 sequence (P06756 31-889 limits assumed): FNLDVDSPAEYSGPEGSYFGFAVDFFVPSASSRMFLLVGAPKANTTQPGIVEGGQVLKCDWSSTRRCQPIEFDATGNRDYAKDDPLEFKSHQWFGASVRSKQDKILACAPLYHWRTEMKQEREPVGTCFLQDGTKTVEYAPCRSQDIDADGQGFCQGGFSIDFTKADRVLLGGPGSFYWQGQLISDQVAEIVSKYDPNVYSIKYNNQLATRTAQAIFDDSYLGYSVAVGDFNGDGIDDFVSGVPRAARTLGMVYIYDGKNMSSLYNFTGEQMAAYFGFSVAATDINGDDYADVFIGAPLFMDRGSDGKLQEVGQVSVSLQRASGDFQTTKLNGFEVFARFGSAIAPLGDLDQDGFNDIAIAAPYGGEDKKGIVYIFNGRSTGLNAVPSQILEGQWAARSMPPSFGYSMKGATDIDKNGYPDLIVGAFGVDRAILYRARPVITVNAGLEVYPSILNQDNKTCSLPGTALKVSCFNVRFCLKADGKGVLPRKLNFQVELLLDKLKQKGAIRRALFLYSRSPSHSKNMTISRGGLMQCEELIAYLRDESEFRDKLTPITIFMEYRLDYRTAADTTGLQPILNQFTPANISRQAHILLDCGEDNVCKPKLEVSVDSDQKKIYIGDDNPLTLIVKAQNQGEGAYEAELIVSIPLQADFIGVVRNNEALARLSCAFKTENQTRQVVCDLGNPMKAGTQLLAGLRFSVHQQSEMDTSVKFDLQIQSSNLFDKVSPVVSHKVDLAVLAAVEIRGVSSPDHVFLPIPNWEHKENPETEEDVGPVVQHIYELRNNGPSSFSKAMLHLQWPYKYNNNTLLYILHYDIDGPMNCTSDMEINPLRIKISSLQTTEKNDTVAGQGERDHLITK
T1 sequence (P06756 891-1048 partner limits assumed): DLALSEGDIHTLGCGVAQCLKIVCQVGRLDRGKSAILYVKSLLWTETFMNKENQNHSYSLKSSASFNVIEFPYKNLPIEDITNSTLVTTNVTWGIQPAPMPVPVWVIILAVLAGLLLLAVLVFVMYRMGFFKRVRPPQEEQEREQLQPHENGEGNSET
T1 sequence (P05106 27-788): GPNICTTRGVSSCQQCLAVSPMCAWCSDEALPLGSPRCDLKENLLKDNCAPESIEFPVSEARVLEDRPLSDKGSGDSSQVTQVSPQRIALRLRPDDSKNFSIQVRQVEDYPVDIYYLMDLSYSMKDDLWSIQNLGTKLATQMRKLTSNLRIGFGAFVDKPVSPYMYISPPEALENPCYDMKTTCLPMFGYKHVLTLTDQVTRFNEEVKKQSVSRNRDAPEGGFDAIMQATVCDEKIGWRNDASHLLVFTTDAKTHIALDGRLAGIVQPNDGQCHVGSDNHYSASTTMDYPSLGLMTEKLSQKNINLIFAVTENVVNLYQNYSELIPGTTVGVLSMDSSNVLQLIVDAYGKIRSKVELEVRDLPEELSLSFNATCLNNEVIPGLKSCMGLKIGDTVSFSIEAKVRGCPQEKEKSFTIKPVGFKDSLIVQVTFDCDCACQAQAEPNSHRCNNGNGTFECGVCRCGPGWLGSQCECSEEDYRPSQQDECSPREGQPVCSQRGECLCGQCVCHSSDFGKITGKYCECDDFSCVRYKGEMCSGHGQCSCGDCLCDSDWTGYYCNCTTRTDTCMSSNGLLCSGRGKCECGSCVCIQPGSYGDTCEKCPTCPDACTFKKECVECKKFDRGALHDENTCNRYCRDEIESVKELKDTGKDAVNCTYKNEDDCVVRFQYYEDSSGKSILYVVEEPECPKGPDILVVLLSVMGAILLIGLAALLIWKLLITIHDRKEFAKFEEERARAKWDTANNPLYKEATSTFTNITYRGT

B1: endostatin: tumor associated angiogenesis inhibitor used as comparator (protein, UniProt P39060 1572-1754, looked up)
Endostatin: HSHRDFQPVLHLVALNSPLSGGMRGIRGADFQCFQQARAVGLAGTFRAFLSSRLQDLYSIVRRADRAAVPIVNLKDELLFPSWEALFSGSEGPLKPGARIFSFDGKDVLRHPTWPQKSVWHGSDPNGRRLTESYCETWRTEAPSATGQASSLLGGRLLGQSAASCHHAYIVLCIENSFMTASK
modifications: Endostatin
decrease of cap-dependent translation of LUC (bovine endothelial cells): did not affect cap-dependent translation
average percentage tube branch formation (HUVECs; 5 μg/ml, BSA 22.7±3.1): 19.4±3.0
average percentage tube branch formation (HUVECs; 20 μg/ml endostatin): 7.5±6.0

B2: Tum-2: residues 1 to 132 of Tumstatin (SEQ ID NO:23) (protein)
chain: GLKGKRGDSGSPATWTTRGFVFTRHSQTTAIPSCPEGTVPLYSGFSFLFVQGNQRAHGQDLGTLGSCLQRFTTMPFLFCNVNDVCNFASRNDYSYWLSTPALMPMNMAPITGRALEPYISRCTVCEGPAIAI
modifications: Tum-2 (amino acids 1-132 of SEQ ID NO10)
anti-proliferative effect after pre-incubation with anti-Tum-4 antibody (C-PAE cells [1]): not affected

B3: Tum-4: residues 181 to 244 of Tumstatin (SEQ ID NO:25) (protein)
chain: EFRASPFLECHGRGTCNYYSNSYSFWLASLNPERMFRKPIPSTVKAGELEKIISRCQVCMKKRH
modifications: Tum-4 (amino acids 181-244 of SEQ ID NO10)
recovery of anti-proliferative effect by soluble αvβ3 protein (αvβ3 integrin protein): 76.7%

B4: Canstatin: NC1 domain of the α2 chain of Type IV collagen (SEQ ID NO:6) (protein, listed as Homo sapiens)
chain: VSIGYLLVKHSQTDQEPMCPVGMNKLWSGYSLLYFEGQEKAHNQDLGLAGSCLARFSTMPFLYCNPGDVCYYASRNDKSYWLSTTAPLPMMPVAEDEIKPYISRCSVCEAPAIAIAVHSQDVSIPHCPAGWRSLWIGYSFLMHTAAGDEGGGQSLVSPGSCLEDFRATPFIECNGGRGTCHYYANKYSFWLTTIPEQSFQGSPSADTLKAGLIRTHISRCQVCMKNL
apoptosis of PC-3 cells (PC-3 cells): no significant effect

B5: Tumstatin-44-131: residues 44 to 131 of full-length Tumstatin (SEQ ID NO:33) (protein)
chain: FSFLFVQGNQRAHGQDLGTLGSCLQRFTTMPFLFCNVNDVCNFASRNDYSYWLSTPALMPMNMAPITGRALEPYISRCTVCEGPAIAI
modifications: Tumstatin-45-132 (amino acids 45-132 of SEQ ID NO10)
average percentage tube branch formation (HUVECs; 5 μg/ml, BSA 22.7±3.1): 2.1±2.0
incorporation of BrdU (C-PAE cells [2]): decreased incorporation of BrdU

B6: Tumstatin: NC1 domain of the α3 chain of type IV collagen, residues 1-244 (SEQ ID NO:10) (protein, listed as Homo sapiens)
chain: GLKGKRGDSGSPATWTTRGFVFTRHSQTTAIPSCPEGTVPLYSGFSFLFVQGNQRAHGQDLGTLGSCLQRFTTMPFLFCNVNDVCNFASRNDYSYWLSTPALMPMNMAPITGRALEPYISRCTVCEGPAIAIAVHSQTTDIPPCPHGWISLWKGFSFIMFTSAGSEGTGQALASPGSCLEEFRASPFLECHGRGTCNYYSNSYSFWLASLNPERMFRKPIPSTVKAGELEKIISRCQVCMKKRH
apoptosis of PC-3 cells (PC-3 cells): not observed
incorporation of BrdU (C-PAE cells [2]): decreased incorporation of BrdU

B7: Tum-1: residues 54 to 244 of Tumstatin, lacking the N-terminal 53 amino acids (SEQ ID NO:22) (protein)
chain: QRAHGQDLGTLGSCLQRFTTMPFLFCNVNDVCNFASRNDYSYWLSTPALMPMNMAPITGRALEPYISRCTVCEGPAIAIAVHSQTTDIPPCPHGWISLWKGFSFIMFTSAGSEGTGQALASPGSCLEEFRASPFLECHGRGTCNYYSNSYSFWLASLNPERMFRKPIPSTVKAGELEKIISRCQVCMKKRH
modifications: Tum-1 (Tumstatin N-53) (amino acids 54-244 of SEQ ID NO10)
anti-proliferative effect after pre-incubation with anti-Tum-4 antibody (C-PAE cells [1]): not altered
